In PMC3948749, “Engineering of Pyranose Dehydrogenase for Increased Oxygen Reactivity” (PLoS ONE, 2014):

Substrate: O=C1C(Cl)=CC(=Nc2ccc(O)cc2)C=C1Cl
Test: steady-state kinetics, DCIP reduction
Type: biochemical, Macropsalliota meleagris
Settings: apparent, electron acceptor, 25 mM D-glucose as donor, pH 4, 30 °C
Text: steady-state kinetics, DCIP reduction on AmPDH (Agaricus meleagris pyranose dehydrogenase, pdh1)

| Protein | Km | kcat | kcat/Km |
| --- | --- | --- | --- |
| AmPDH (Agaricus meleagris pyranose dehydrogenase, pdh1) (Macropsalliota meleagris) (protein, monomeric glycoprotein about 90 kDa, 64 kDa deglycosylated) AITYQHPDDLPSGVDYDFIVAGGGTAGLVVASRLSENSNWKVLVIEAGPSNKDAFVTRVPGLASTLGAGSPIDWNYTTIPQDGLDGRSLDYPRAKILGGCSTHNGMVYTRGSKDDWNSWAGIIGDQGLGWDSILPAIKKAEKFTQDFTDQSVKGHIDPSVHGFDGKLSVSAAYSNISFNDLLFETTKELNAEFPFKLDMNDGKPIGLGWTQYTIDNHAERSSSATSYLESTGDNVHVLVNTLVTRVLSASGNGTDFRKVEFAVDANSPKKQLEAKKEVIVAGGVIASPQILMNSGIGERKVLQAVGIDTLIDNPSVGKNLSDQGATSVMFDTTLPSTDFDVDAALTEWTNSHTGPLARGARLNHLTFVRLPDDKLNGQDPSSGKNSPHIEFQFAQITPQVPTLGVPKQAPLPAANSYRLLLQLAVVNLYSISRGSISLSDNNPFTYPLIDLNMFKEDIDIAILREGIRSAGRMFSSKAFKNSVNKFVYPPADATSDEDLDAFLRSSTFSYVHGVGTLSMSPKGASWGVVNPDFKVKGTSGLRVVDASVIPHAPAAHTQLPVYAFAEYASALIAKSYN | 140 ± 10 µM | 40.7 ± 4.1 s⁻¹ | 291000 M⁻¹ s⁻¹ |
| AmPDH (Agaricus meleagris pyranose dehydrogenase, pdh1) (Macropsalliota meleagris; H128Y) (protein, monomeric glycoprotein about 90 kDa, 64 kDa deglycosylated) AITYQHPDDLPSGVDYDFIVAGGGTAGLVVASRLSENSNWKVLVIEAGPSNKDAFVTRVPGLASTLGAGSPIDWNYTTIPQDGLDGRSLDYPRAKILGGCSTYNGMVYTRGSKDDWNSWAGIIGDQGLGWDSILPAIKKAEKFTQDFTDQSVKGHIDPSVHGFDGKLSVSAAYSNISFNDLLFETTKELNAEFPFKLDMNDGKPIGLGWTQYTIDNHAERSSSATSYLESTGDNVHVLVNTLVTRVLSASGNGTDFRKVEFAVDANSPKKQLEAKKEVIVAGGVIASPQILMNSGIGERKVLQAVGIDTLIDNPSVGKNLSDQGATSVMFDTTLPSTDFDVDAALTEWTNSHTGPLARGARLNHLTFVRLPDDKLNGQDPSSGKNSPHIEFQFAQITPQVPTLGVPKQAPLPAANSYRLLLQLAVVNLYSISRGSISLSDNNPFTYPLIDLNMFKEDIDIAILREGIRSAGRMFSSKAFKNSVNKFVYPPADATSDEDLDAFLRSSTFSYVHGVGTLSMSPKGASWGVVNPDFKVKGTSGLRVVDASVIPHAPAAHTQLPVYAFAEYASALIAKSYN | 20 ± 10 µM | 2.8 ± 0.5 s⁻¹ | 140000 M⁻¹ s⁻¹ |
